According to US20200048333A1 (THOMAS JEFFERSON UNIVERSITY, published 2020):
Each block holds one binder with its values, some of them ahead of it. No end group written: not given here.

How the values were obtained:
GDFYRA = molecular target: T1, GDFYRA (also: biotinylated (position not given here)); assay: blot: antibody variant immobilized on nitrocellulose, biotinylated peptide bound, chemiluminescence
T1 construct: also called biotinylated α2Ct peptide GDFYRA
T1 peptide: GDFYRA

GYDGDF = molecular target: T2, GYDGDF (also: biotinylated (position not given here)); assay: as above
T2 construct: also called biotinylated α2Ct peptide GYDGDF
T2 peptide: GYDGDF

[1] = molecular target: T3, human procollagen I isolated from human dermal fibroblasts (human, UniProt P02452 23-1464; P08123 23-1366); assay: biosensor; procollagen I immobilized, Fab in solution
T3 construct: Native triple-helical heterotrimer; also called native α2Ct present in procollagen I
T3 sequence (P02452 23-1464, chain 1 of 2): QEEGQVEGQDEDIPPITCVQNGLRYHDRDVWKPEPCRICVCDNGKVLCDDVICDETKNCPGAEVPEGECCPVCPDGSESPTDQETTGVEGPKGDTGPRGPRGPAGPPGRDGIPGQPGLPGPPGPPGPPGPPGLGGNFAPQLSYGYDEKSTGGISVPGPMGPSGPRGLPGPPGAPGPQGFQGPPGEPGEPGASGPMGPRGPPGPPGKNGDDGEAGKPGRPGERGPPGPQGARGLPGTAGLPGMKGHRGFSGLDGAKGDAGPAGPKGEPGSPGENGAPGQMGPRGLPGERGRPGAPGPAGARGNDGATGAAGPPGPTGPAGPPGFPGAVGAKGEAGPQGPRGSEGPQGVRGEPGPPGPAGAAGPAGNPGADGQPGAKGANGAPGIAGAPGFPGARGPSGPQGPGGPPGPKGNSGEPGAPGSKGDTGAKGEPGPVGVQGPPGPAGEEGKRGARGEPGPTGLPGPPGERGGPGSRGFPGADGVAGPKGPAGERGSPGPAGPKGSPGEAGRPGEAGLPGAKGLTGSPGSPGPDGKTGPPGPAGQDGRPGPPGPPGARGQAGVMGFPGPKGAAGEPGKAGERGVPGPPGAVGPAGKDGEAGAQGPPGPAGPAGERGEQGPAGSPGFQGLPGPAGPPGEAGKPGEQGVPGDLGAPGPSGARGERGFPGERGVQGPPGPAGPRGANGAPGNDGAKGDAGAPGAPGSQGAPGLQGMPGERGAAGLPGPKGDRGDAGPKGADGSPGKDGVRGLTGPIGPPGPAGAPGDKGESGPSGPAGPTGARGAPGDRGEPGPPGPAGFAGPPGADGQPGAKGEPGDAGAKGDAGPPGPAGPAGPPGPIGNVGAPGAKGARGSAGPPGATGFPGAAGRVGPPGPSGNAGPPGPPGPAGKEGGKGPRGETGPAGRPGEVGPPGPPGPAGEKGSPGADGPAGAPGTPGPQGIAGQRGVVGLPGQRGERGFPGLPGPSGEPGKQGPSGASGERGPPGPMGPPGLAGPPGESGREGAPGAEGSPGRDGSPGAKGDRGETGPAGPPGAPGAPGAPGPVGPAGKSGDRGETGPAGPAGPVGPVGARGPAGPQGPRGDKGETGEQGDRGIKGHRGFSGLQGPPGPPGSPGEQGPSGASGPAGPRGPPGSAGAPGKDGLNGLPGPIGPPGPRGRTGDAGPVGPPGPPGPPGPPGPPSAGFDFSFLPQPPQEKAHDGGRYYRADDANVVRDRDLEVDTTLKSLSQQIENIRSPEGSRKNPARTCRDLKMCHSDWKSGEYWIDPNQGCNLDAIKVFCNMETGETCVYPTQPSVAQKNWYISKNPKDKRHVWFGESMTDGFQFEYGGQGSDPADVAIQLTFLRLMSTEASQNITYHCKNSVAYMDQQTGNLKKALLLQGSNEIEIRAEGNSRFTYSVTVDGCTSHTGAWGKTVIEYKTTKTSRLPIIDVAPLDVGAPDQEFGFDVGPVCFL
T3 sequence (P08123 23-1366, chain 2 of 2): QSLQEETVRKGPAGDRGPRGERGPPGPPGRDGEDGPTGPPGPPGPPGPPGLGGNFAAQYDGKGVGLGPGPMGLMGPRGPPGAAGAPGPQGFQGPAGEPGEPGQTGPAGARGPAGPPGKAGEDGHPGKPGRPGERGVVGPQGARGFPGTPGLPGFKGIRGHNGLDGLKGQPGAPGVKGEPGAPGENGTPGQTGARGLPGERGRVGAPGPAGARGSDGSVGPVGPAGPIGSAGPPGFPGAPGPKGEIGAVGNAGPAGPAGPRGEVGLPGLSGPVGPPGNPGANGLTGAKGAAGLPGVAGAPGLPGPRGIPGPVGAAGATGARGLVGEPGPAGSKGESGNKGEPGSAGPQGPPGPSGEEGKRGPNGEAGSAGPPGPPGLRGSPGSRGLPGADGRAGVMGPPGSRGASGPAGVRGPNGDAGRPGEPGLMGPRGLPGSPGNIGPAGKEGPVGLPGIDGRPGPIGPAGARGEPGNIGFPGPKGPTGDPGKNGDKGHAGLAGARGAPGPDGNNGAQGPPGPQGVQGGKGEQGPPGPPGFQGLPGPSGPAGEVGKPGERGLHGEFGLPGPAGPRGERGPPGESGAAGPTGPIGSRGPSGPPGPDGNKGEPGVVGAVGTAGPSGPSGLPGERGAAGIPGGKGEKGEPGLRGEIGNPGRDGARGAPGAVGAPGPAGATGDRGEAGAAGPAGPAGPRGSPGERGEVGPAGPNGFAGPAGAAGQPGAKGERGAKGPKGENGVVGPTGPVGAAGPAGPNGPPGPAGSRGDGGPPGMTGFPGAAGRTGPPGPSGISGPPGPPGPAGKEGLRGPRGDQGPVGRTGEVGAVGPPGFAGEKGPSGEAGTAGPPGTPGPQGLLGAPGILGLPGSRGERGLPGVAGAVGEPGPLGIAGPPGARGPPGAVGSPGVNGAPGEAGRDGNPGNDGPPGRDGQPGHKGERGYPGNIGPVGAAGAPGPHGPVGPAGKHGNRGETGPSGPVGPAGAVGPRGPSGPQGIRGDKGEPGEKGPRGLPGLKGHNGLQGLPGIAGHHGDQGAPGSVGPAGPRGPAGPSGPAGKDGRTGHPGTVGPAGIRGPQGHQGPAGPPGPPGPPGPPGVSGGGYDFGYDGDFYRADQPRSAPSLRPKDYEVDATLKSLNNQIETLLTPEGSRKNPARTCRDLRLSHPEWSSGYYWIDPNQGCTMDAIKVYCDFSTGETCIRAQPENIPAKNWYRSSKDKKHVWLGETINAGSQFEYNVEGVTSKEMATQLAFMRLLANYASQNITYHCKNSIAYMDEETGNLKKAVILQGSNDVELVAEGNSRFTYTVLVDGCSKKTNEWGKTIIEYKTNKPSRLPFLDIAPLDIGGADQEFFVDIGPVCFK
Method: (§1) In brief, human procollagen I isolated from human dermal fibroblasts and synthetic α2Ct were immobilized on separate channels of a biosensor. Subsequently, the full-length AFA or its Fab fragments, generated by digestion with papain, were added at various concentrations to a sensor to record the association and the dissociation phases. Data from the AFA binding interactions and the Fab binding interactions were then used to calculate the KD values. In a separate set of experiments, the binding interactions of the scFv variant consisting of the VL and VH domains connected via a peptide linker were also tested using a biosensor. In these assays, the scFv-procollagen I binding interactions were studied.

[2] = molecular target: T4, synthetic full-length α2(I) C-telopeptide of human collagen I (α2Ct) (human); assay: biosensor; synthetic α2Ct immobilized, Fab in solution
T4 construct: also called synthetic α2Ct; full-length α2Ct
T4 peptide: GGGYDFGYDGDFYRA
Method: as §1

[3] = molecular target: T3, human procollagen I isolated from human …; assay: biosensor; scFv-procollagen I
Method: as §1

α2Ct fragment GYDFG = molecular target: T5, α2Ct fragment GYDFG (human); assay: biosensor; AFA immobilized, peptide in solution
T5 construct: One of the overlapping peptides spanning the human α2Ct
T5 peptide: GYDFG
Method: (§2) Kinetics of the binding of the AFA to defined α2Ct epitopes. Employing a biosensor, we also analyzed the kinetics of the binding of the AFA with defined epitopes of the human α2Ct. For these assays we employed the AFA, control human IgG, and a set of overlapping peptides spanning the α2Ct (Table 3). In brief, the AFA and control human IgG were covalently immobilized on separate channels of a sensor chip. Subsequently, the binding of the α2Ct fragments to the immobilized antibodies was analyzed. Finally, the dissociation equilibrium constant (KD) values for each α2Ct fragment were calculated (Table 1).

α2Ct fragment DFYRA = molecular target: T6, α2Ct fragment DFYRA (human); assay: biosensor; AFA immobilized, peptide in solution
T6 construct: One of the overlapping peptides spanning the human α2Ct
T6 peptide: DFYRA
Method: as §2

α2Ct fragment GYDGD = molecular target: T7, α2Ct fragment GYDGD (human); assay: biosensor; AFA immobilized, peptide in solution
T7 construct: One of the overlapping peptides spanning the human α2Ct
T7 peptide: GYDGD
Method: as §2

α2Ct fragment DGDFY = molecular target: T8, α2Ct fragment DGDFY (human); assay: biosensor; AFA immobilized, peptide in solution
T8 construct: One of the overlapping peptides spanning the human α2Ct; also called A2_DGDFY
T8 peptide: DGDFY
Method: as §2

α2Ct fragment DFGYD = molecular target: T9, α2Ct fragment DFGYD (human); assay: biosensor; AFA immobilized, peptide in solution
T9 construct: One of the overlapping peptides spanning the human α2Ct
T9 peptide: DFGYD
Method: as §2

[4] = molecular target: T4, synthetic full-length α2(I) …; assay: biosensor; table of α2Ct fragments binding to AFA
Method: as §2

[5] = molecular target: T4, synthetic full-length α2(I) …; assay: biosensor; synthetic α2Ct immobilized, antibody in solution
Method: as §1

[6] = molecular target: T3, human procollagen I isolated from human …; assay: biosensor; procollagen I immobilized, antibody in solution
Method: as §1

- binding result (GDFYRA): binds
- binding result (GYDGDF): binds
B1: chimeric human IgG-type AFA (antibody, V domains shown)
VH: AQIQLVQSGPELKKPGETVKISCKASGYTFTDYPLHWVKQAPGKGLQWMAWINTETGEPTYADDFTGRFAFSLETSASTAYLQINNLKNEDTATYFCVRGYYYYWGQGTTLSVSS
VL: DIVMSQSPSSLAVSAGEKVTMSCKSSQSLLNSRTRKNNLAWYQQKPGQSPKLLIYWASTRESGVPDRFTGSGSGTDFTLTISSVQAEDLAVYYCKQSYNLWTFGGGTKLEIKR
notes: also called chIgG; chlgG

- binding result (GDFYRA): binds
- binding result (GYDGDF): binds
B2: original mouse IgA-type AFA (antibody, V domains shown)
VH: AQIQLVQSGPELKKPGETVKISCKASGYTFTDYPLHWVKQAPGKGLQWMAWINTETGEPTYADDFTGRFAFSLETSASTAYLQINNLKNEDTATYFCVRGYYYYWGQGTTLSVSS
VL: DIVMSQSPSSLAVSAGEKVTMSCKSSQSLLNSRTRKNNLAWYQQKPGQSPKLLIYWASTRESGVPDRFTGSGSGTDFTLTISSVQAEDLAVYYCKQSYNLWTFGGGTKLEIKR
notes: Mouse IgA from a hybridoma, with heavy α chain and light κ chain; also called native mouse IgA-type AFA; original IgA-type anti-α2Ct antibody

- Kd [1]: 0.268 µM
- Kd [2]: 0.057 µM
B3: Fab fragment of the AFA (Fab, V domains shown)
VH: AQIQLVQSGPELKKPGETVKISCKASGYTFTDYPLHWVKQAPGKGLQWMAWINTETGEPTYADDFTGRFAFSLETSASTAYLQINNLKNEDTATYFCVRGYYYYWGQGTTLSVSS
VL: DIVMSQSPSSLAVSAGEKVTMSCKSSQSLLNSRTRKNNLAWYQQKPGQSPKLLIYWASTRESGVPDRFTGSGSGTDFTLTISSVQAEDLAVYYCKQSYNLWTFGGGTKLEIKR
notes: also called Fab AFA antibody; Fab fragments of the AFA

- Kd [3]: 0.075 µM
B4: scFv variant of the AFA consisting of the VL and VH domains connected via a peptide linker (scFv, V domains shown, not shown: small tags and cut ends)
VL: DIVMSQSPSSLAVSAGEKVTMSCKSSQSLLNSRTRKNNLAWYQQKPGQSPKLLIYWASTRESGVPDRFTGSGSGTDFTLTISSVQAEDLAVYYCKQSYNLWTFGGGTKLEIKR
V domain: AQIQLVQSGPELKKPGETVKISCKASGYTFTDYPLHWVKQAPGKGLQWMAWINTETGEPTYADDFTGRFAFSLETSASTAYLQINNLKNEDTATYFCVRGYYYYWGQGTTLSVSS
notes: The domain order VL-linker-VH follows the wording 'VL and VH domains connected via a peptide linker'; also called single chain antibody

- Kd (α2Ct fragment GYDFG): 259 µM
- Kd (α2Ct fragment DFYRA): 449 µM
- Kd (α2Ct fragment GYDGD): 604 µM
- Kd (α2Ct fragment DGDFY): 22.2 µM
- Kd (α2Ct fragment DFGYD): 6400 µM
- Kd [4]: 0.021 nM
- Kd [5]: 0.021 nM
- Kd [6]: 0.000663 µM
B5: full-length anti-fibrotic antibody (AFA), monoclonal anti-collagen I antibody against the α2(I) C-telopeptide (antibody, V domains shown)
VH: AQIQLVQSGPELKKPGETVKISCKASGYTFTDYPLHWVKQAPGKGLQWMAWINTETGEPTYADDFTGRFAFSLETSASTAYLQINNLKNEDTATYFCVRGYYYYWGQGTTLSVSS
VL: DIVMSQSPSSLAVSAGEKVTMSCKSSQSLLNSRTRKNNLAWYQQKPGQSPKLLIYWASTRESGVPDRFTGSGSGTDFTLTISSVQAEDLAVYYCKQSYNLWTFGGGTKLEIKR
notes: The control was human IgG; also called full-length AFA; Full-length AFA antibody
